{"source": "patent US20060148683A1", "about": "“Detection and treatment of intravascular lesions” (priority 2001, published 2006)", "molecules": {"B1": {"name": "Tissue plasminogen activator (protein, UniProt P00750 36-562, looked up)", "Tissue-type plasminogen …": "SYQVICRDEKTQMIYQQHQSWLRPVLRSNRVEYCWCNSGRAQCHSVPVKSCSEPRCFNGGTCQQALYFSDFVCQCPEGFAGKCCEIDTRATCYEDQGISYRGTWSTAESGAECTNWNSSALAQKPYSGRRPDAIRLGLGNHNYCRNPDRDSKPWCYVFKAGKYSSEFCSTPACSEGNSDCYFGNGSAYRGTHSLTESGASCLPWNSMILIGKVYTAQNPSAQALGLGKHNYCRNPDGDAKPWCHVLKNRRLTWEYCDVPSCSTCGLRQYSQPQFRIKGGLFADIASHPWQAAIFAKHRRSPGERFLCGGILISSCWILSAAHCFQERFPPHHLTVILGRTYRVVPGEEEQKFEVEKYIVHKEFDDDTYDNDIALLQLKSDSSRCAQESSVVRTVCLPPADLQLPDWTECELSGYGKHEALSPFYSERLKEAHVRLYPSSRCTSQHLLNRTVTDNMLCAGDTRSGGPQANLHDACQGDSGGPLVCLNDGRMTLVGIISWGLGCGQKDVPGVYTKVTNYLDWIRDNMRP", "notes": "thrombolytic"}}, "system": "thrombus", "assay": "Treatment of a thrombus in guinea pig inferior vena cava monitored by catheter fluorescence detection", "assay_type": "in vivo", "conditions": "guinea pig IVC thrombus; tPA delivered through the catheter after optical agent 0.02 μmol/kg", "experimental": "A guinea pig (Harley, male) is anaesthetized. […] The vessel is allowed to recover for 10 mins. A 1 cm portion of the IVC is clamped and human thrombin (50 μL, 4 units) is injected into the vessel to promote thrombus formation. The lower clamp is opened and closed to allow partial blood flow to the segment. After 2-3 mins., the clips are removed. The thrombus is allowed to age in the animal for 30 mins. At this point, the optical agent is administered at a dose of 0.02 μmol/kg, via injection into the jugular vein. After 30 mins., a catheter with an optical fluorescence detector is inserted into the IVC and the thrombus visualized by detecting the fluorescence signal emitted by the fibrin-optical agent complexes on the thrombus. […] TNKASE™ (Tenecteplase) is a commercially approved tissue plasminogen activator (tPA) produced by recombinant DNA technology and sold by Genetech. The drug is administered intravenously at a dose of 30-50 mg, depending on patient weight.", "data": [{"molecule": "B1", "values": [{"measurement": "Optical fluorescence signal of fibrin-optical agent complexes on thrombus (clot dissolution and lysis)", "result": "optical fluorescence signal decreases"}]}]}
